IntAct's records for PubMed 18354501

B1: General transcription factor IIE subunit 1 (Homo sapiens), P29083 (parent)
chain: MADPDVLTEVPAALKRLAKYVIRGFYGIEHALALDILIRNSCVKEEDMLELLKFDRKQLRSVLNNLKGDKFIKCRMRVETAADGKTTRHNYYFINYRTLVNVVKYKLDHMRRRIETDERDSTNRASFKCPVCSSTFTDLEANQLFDPMTGTFRCTFCHTEVEEDESAMPKKDARTLLARFNEQIEPIYALLRETEDVNLAYEILEPEPTEIPALKQSKDHAATTAGAASLAGGHHREAWATKGPSYEDLYTQNVVINMDDQEDLHRASLEGKSAKERPIWLRESTVQGAYGSEDMKEGGIDMDAFQEREEGHAGPDDNEEVMRALLIHEKKTSSAMAGSVGAAAPVTAANGSDSESETSESDDDSPPRPAAVAVHKREEDEEEDDEFEEVADDPIVMVAGRPFSYSEVSQRPELVAQMTPEEKEAYIAMGQRMFEDLFE

Variants of: B1
Conditions: with tf2h1_human GTF2H1, P32780
Sequence of tf2h1_human GTF2H1, P32780 (P32780 whole entry): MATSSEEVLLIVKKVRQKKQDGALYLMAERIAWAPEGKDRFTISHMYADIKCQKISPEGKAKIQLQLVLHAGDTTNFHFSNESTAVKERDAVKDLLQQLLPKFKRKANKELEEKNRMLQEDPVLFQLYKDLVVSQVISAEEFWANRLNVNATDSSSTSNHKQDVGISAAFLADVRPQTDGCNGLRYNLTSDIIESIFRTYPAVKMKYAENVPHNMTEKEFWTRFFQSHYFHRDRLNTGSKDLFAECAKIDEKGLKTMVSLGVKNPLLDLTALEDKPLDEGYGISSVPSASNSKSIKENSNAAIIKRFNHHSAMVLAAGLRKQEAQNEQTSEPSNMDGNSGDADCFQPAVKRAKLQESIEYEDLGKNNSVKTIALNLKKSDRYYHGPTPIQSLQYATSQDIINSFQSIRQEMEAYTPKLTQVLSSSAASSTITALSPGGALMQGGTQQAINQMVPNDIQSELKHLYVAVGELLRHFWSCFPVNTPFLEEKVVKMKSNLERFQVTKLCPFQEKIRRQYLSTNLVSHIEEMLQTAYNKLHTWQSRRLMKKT

Q: For V390A, which “effect of a mutation on the interaction” value is on record?
A: The value was “disrupting interaction”.

Variants of: B1
Conditions: with tf2h1_human GTF2H1, P32780
Remark: another data set of the same source

Q: Which “effect of a mutation on the interaction” value does the source give for F387A here?
A: Its value is “disrupting interaction”.
